Measurements published in PMC6546395 (eLife, 2019).

B1: Sli15/Ipl1 core chromosomal passenger complex (complex, S. cerevisiae)
chain 1: MDWAIKAARKKTQRKPGSTRSIIETLDDLNNLTTDAHSEINQRLYESSEWLRNNVYMNTLKYEDKKMEESLISPENTHNKMDVEFPKMKGEYELSNSQNDAAKDVTKTPRNGLHNDKSITPKSLRRKEVTEGMNRFSIHDTNKSPVEPLNSVKVDANESEKSSPWSPYKVEKVLRESSKTSESPINTKRFDNQTWAAKEEMENEPILQALKKAESVKVKPPPNSGIARSQRRSNMFVPLPNKDPLIIQHIPPTKSSGSIPKVRTVKESPIAFKKKSTINSPAIRAVENSDTAGSTKASSVFDRLSSIPTKSFENKISRGNVGHKYSSSSIDLTGSPMKKVSQKFKSINSTDTDMQEALRDIFSVKNKITKNNSPKGKNSRKSSIPRFDKTSLKLTTHKKLAIIAEQKKKSKHSSDVHKTGSRPHSISPTKISVDSSSPSKEVKNYYQSPVRGYLRPTKASISPNKNKNLTTSQTPHRLKIKEKTLRKLSPNIADISKPESRKSKNYRLTNLQLLPPAEAERDDLKKKFDKRLSGIMRSQQEHHRRKQEKQKRMSHLEQDLKKQTSFSNDYKDIRLKESLAPFDNHVRDTINKNTAFSTDNILATINTVDHREIIGNVTPKIASVNDSLPEINTDSEDEASVTLAAWAKSPYLQEQLIRQQDINPQTIFGPIPPLHTDEIFPNPRLNRLKPRQIVPKRS
chain 2: MQRNSLVNIKLNANSPSKKTTTRPNTSRINKPWRISHSPQQRNPNSKIPSPVREKLNRLPVNNKKFLDMESSKIPSPIRKATSSKMIHENKKLPKFKSLSLDDFELGKKLGKGKFGKVYCVRHRSTGYICALKVMEKEEIIKYNLQKQFRREVEIQTSLNHPNLTKSYGYFHDEKRVYLLMEYLVNGEMYKLLRLHGPFNDILASDYIYQIANALDYMHKKNIIHRDIKPENILIGFNNVIKLTDFGWSIINPPENRRKTVCGTIDYLSPEMVESREYDHTIDAWALGVLAFELLTGAPPFEEEMKDTTYKRIAALDIKMPSNISQDAQDLILKLLKYDPKDRMRLGDVKMHPWILRNKPFWENKRL
notes: Sli15 (INCENP ortholog), wild type; open reading frame amplified from yeast genomic DNA; Ipl1 (Aurora B ortholog); also called Sli15-2xStrep/Ipl1; Sli15-2xStrep-HA-6xHis/Ipl1; source: High Five insect cells (baculovirus), purified (Strep-Tactin Superflow agarose); not shown: 2xStrep, C-terminal, kept; HA, C-terminal, kept; 6xHis, C-terminal, kept
B2: dephosphorylated Sli15/Ipl1 (complex, S. cerevisiae)
chain 1: B1 chain 1
chain 2: B1 chain 2
modifications: basal phosphorylation removed with lambda phosphatase | basal phosphorylation removed with lambda phosphatase
notes: Sli15 (INCENP ortholog); open reading frame amplified from yeast genomic DNA; Ipl1 (Aurora B ortholog); also called Sli15/Ipl1 (dp); not shown: 2xStrep, C-terminal, kept; HA, C-terminal, kept; 6xHis, C-terminal, kept

Assays:
[1] = target: T1, COMA complex (Ctf19/Okp1/Mcm21/Ame1) (S. cerevisiae, UniProt P38313 1-324; P53298 1-406; Q02732 1-369; Q06675 1-368); assay: cross-linking; Sli15-2xStrep-HA-6xHis/Ipl1 with Ame1/Okp1 and Ctf19/Mcm21 assembled on Strep-Tactin agarose (RT, 1 hr; 50 mM NaH2PO4 pH 8.0, 500 mM NaCl, 5% glycerol), eluted with biotin, re-isolated on Ni-NTA beads; BS3 0.25–0.5 mM, 30°C, 30 min; LC-MS/MS, xQuest; conditions: both partners purified
T1 construct: Ame1 (CENP-U ortholog); Okp1 (CENP-Q ortholog); Ctf19 (CENP-P ortholog); open reading frame amplified from yeast genomic DNA; Mcm21 (CENP-O ortholog); The two heterodimers m7 and m12 together; copies: + + +

[2] = target: T1, COMA complex (Ctf19/Okp1/Mcm21/Ame1); assay: pull-down; Sli15-2xStrep-HA-6xHis/Ipl1 immobilised on Strep-Tactin Superflow agarose, 2-fold molar excess of the partners; 50 mM NaH2PO4 pH 8, 120 mM NaCl, 5% glycerol, 4°C, 1 hr; SDS-PAGE and Coomassie; conditions: both partners purified

T1 sequence (P38313 whole entry, chain 1 of 4): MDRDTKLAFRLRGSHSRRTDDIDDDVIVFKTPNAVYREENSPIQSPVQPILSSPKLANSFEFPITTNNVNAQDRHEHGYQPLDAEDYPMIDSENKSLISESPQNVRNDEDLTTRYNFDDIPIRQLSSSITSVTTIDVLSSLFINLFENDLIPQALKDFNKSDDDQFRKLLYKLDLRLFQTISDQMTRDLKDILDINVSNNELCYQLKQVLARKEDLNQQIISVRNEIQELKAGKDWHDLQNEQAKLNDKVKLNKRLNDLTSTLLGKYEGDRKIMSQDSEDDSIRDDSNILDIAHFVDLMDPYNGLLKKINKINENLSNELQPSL
T1 sequence (P53298 whole entry, chain 2 of 4): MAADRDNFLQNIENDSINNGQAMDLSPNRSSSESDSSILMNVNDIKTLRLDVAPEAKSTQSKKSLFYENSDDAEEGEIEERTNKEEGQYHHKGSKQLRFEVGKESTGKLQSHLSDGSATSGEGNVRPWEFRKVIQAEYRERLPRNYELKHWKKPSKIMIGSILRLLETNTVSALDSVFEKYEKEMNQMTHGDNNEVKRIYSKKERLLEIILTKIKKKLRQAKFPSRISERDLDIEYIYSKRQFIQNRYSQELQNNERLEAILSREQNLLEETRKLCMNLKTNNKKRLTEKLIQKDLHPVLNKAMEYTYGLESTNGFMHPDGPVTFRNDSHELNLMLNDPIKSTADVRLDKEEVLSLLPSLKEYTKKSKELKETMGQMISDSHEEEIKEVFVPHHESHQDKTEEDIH
T1 sequence (Q02732 whole entry, chain 3 of 4): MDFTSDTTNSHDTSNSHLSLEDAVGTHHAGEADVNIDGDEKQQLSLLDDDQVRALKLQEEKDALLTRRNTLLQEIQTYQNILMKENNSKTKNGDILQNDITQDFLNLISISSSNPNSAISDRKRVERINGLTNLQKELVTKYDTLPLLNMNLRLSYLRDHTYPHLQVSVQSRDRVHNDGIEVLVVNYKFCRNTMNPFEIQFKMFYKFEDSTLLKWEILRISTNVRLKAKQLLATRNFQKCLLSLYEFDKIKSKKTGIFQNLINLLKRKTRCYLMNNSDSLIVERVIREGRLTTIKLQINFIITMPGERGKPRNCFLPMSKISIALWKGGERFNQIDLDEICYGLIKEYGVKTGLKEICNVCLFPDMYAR
T1 sequence (Q06675 whole entry, chain 4 of 4): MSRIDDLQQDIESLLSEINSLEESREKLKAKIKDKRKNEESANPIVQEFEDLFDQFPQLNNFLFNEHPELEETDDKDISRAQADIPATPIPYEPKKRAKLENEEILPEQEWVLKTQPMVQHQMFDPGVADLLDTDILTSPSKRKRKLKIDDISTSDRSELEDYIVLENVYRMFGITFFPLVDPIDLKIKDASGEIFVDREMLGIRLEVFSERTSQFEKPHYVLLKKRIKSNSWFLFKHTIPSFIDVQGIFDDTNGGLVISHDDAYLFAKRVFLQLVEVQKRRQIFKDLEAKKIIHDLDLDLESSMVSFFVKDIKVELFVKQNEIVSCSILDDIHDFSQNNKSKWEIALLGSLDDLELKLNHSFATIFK

| Binder | binding result [1] | binding result [2] |
| --- | --- | --- |
| B1 | binds |  |
| B2 |  | binds |
